Numbering of substitutions follows the chain as printed. Numbers in names are those of the source.
T1: human BCMA (human, UniProt Q02223 1-184)
T1 construct: whole, on cells; also called hBCMA; TNFRSF17
T1 sequence (looked up): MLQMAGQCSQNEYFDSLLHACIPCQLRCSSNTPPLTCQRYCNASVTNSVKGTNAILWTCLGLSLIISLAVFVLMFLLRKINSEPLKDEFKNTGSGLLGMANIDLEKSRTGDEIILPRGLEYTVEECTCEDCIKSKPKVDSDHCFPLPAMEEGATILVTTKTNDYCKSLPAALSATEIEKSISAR

T2: human BCMA (human, UniProt Q02223 1-184)
T2 construct: whole, on cells; the cell line is named under assay; also called TNFRSF17; CD269
T2 sequence (looked up): T1 sequence (looked up)

T3: biotinylated human BCMA-Fc, Avitag recombinant protein (ACRO Biosystems, #BC7-H82F0) (human, UniProt Q02223 1-54, biotinylated)
T3 construct: extracellular domain; Bought protein; also called human BCMA protein; recombinant human BCMA-ECD-Fc; not shown: Fc of the bought fusion protein; Avitag
T3 sequence (looked up): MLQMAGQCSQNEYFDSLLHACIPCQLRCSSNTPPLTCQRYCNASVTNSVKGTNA

B1: PR001573 (bispecific antibody, human IgG1, kappa)
light: DIQMTQSPSTLSASVGDRVTVTCRASQSIYIWLAWYQQKPGKAPNLLIYKASSLETGVPSRFSGSGSGTEFTLTISSLQPDDFATYYCQQYYGSSRTFGQGTKVEIKRTVAAPSVFIFPPSDEQLKSGTASVVCLLNNFYPREAKVQWKVDNALQSGNSQESVTEQDSKDSTYSLSSTLTLSKADYEKHKVYACEVTHQGLSSPVTKSFNRGEC
chain: not shown
notes: PD-L1×CTLA4, structure 3
B2: PR001578 (bispecific antibody, human IgG1, kappa)
chain 1: EVQLVESGGGLIQPGGSLRLSCAVSGFTVSKNYMSWVRQAPGKGLEWVSVVYSGGSKTYADSVKGRFTISRDNSKNTLYLQMNSLRAEDTAVYYCARAVPHSPSSFDIWGQGTMVTVSSKLEPKSSDKTHTPPPPPRTDIQMTQSPSTLSASVGDRVTVTCRASQSIYIWLAWYQQKPGKAPNLLIYKASSLETGVPSRFSGSGSGTEFTLTISSLQPDDFATYYCQQYYGSSRTFGQGTKVEIKRTVAAPSVFIFPPSDEQLKSGTASVVCLLNNFYPREAKVQWKVDNALQSGNSQESVTEQDSKDSTYSLSSTLTLSKADYEKHKVYACEVTHQGLSSPVTKSFNRGEC
chain 2: not shown
notes: PD-L1×CTLA4, structure 9, Fc S239D, I332E
B3: PR000416, anti-PD-L1 91G3H5H3(D54E), hIgG1 (antibody)
heavy: not shown
light: B1 light
B4: PR003876 (bispecific antibody, human IgG1, lambda, L234A L235A)
light: QAVVTQEPSLTVSPGGTVTLTCRSSTGAVTTSNYANWVQQKPGQAPRGLIGGTNKRAPWTPARFSGSLLGDKAALTLLGAQPEDEAEYFCALWYSNLWVFGGGTKLTVLGQPKAAPSVTLFPPSSEELQANKATLVCLISDFYPGAVTVAWKADSSPVKAGVETTTPSKQSNNKYAASSYLSLTPEQWKSHRSYSCQVTHEGSTVEKTVAPTECS
heavy: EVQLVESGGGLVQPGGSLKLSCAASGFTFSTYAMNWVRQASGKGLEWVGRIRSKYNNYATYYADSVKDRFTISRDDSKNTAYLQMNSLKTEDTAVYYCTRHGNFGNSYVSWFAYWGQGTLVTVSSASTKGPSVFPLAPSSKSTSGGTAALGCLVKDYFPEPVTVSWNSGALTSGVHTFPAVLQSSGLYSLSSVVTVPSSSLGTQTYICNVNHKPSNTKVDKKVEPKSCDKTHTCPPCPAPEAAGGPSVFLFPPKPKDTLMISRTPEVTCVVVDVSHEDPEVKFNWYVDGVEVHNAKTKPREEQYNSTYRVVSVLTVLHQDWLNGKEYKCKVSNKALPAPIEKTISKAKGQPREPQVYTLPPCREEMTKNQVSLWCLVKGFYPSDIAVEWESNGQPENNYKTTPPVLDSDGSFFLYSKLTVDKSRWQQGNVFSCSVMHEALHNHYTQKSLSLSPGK
chain: EVQLVETGGGLIQPGGSLRLSCAASGFTVSDSYMTWVRQAPGKGLEWVSVIFSGGKTYYSDSVKGRFTISRDNAKNTLYLQMNSLRAEDTALYYCARRNYDQTIGTDVFDIWGQGTMVTVSSASEPKSSDKTHTCPPCPAPEAAGGPSVFLFPPKPKDTLMISRTPEVTCVVVDVSHEDPEVKFNWYVDGVEVHNAKTKPREEQYNSTYRVVSVLTVLHQDWLNGKEYKCKVSNKALPAPIEKTISKAKGQPREPQVCTLPPSREEMTKNQVSLSCAVKGFYPSDIAVEWESNGQPENNYKTTPPVLDSDGSFFLVSKLTVDKSRWQQGNVFSCSVMHEALHNHYTQKSLSLSPGK
notes: BCMAxCD3, Fab-Fc-VH (structure 11); CD3 Fab of PR003886, BCMA VH of PR004571; IgG1 knob/hole, LALA
B5: PR003879 (bispecific antibody, human IgG1, lambda, L234A L235A)
light: B4 light
heavy: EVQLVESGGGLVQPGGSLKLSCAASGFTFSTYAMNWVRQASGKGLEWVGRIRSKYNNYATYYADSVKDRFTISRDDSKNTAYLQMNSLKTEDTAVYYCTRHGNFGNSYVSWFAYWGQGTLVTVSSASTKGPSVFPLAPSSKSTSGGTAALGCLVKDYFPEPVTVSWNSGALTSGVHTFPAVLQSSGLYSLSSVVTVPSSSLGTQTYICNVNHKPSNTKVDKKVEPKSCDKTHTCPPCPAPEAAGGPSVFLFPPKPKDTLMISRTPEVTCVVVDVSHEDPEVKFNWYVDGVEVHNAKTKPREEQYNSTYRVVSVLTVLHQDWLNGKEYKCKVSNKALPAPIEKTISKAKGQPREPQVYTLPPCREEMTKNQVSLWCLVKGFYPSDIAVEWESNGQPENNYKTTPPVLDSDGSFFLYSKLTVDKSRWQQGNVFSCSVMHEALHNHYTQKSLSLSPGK
chain: B4 chain with S32A, K56R, I104R
notes: BCMAxCD3, Fab-Fc-VH (structure 11); CD3 Fab of PR003886, BCMA VH of PR004574; IgG1 knob/hole, LALA
B6: PR003880 (bispecific antibody, human IgG1, lambda, L234A L235A)
light: B4 light
heavy: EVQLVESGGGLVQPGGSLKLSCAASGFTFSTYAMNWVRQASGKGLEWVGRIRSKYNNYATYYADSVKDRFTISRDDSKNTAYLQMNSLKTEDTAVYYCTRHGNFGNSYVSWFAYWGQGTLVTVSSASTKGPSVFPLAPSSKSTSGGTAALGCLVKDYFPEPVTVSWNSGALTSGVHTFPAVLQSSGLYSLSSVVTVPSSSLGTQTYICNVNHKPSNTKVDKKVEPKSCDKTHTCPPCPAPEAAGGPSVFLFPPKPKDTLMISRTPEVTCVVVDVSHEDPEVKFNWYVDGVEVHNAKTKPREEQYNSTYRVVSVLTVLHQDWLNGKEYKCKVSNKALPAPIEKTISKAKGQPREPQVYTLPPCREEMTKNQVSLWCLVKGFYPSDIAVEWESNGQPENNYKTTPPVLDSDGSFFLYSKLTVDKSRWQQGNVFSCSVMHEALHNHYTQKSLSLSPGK
chain: B4 chain with S32A, K56N, Y59V, I104R
notes: BCMAxCD3, Fab-Fc-VH (structure 11); CD3 Fab of PR003886, BCMA VH of PR004560; IgG1 knob/hole, LALA
B7: PR003882 (bispecific antibody, human IgG1, lambda, L234A L235A)
light: B4 light
heavy: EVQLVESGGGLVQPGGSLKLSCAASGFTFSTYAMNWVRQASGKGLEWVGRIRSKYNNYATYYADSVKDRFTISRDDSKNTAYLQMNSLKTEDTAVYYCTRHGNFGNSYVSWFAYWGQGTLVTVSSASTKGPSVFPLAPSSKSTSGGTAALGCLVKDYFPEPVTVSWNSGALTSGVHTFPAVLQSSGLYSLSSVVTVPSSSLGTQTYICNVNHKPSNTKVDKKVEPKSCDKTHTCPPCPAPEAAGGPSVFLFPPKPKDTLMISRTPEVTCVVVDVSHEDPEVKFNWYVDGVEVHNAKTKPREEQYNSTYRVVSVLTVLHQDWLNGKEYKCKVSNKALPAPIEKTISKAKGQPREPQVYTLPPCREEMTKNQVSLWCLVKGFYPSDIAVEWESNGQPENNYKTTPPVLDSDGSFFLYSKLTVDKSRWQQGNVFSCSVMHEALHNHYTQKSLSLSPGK
chain: B4 chain with I104L
notes: BCMAxCD3, Fab-Fc-VH (structure 11); CD3 Fab of PR003886, BCMA VH of PR004562; IgG1 knob/hole, LALA
B8: PR002299 (bispecific antibody, human IgG1, lambda, L234A L235A)
light: B4 light
heavy: EVQLLESGGGLVQPGGSLRLSCAASGFTFSTYAMNWVRQAPGKGLEWVSRIRSKYNNYATYYADSVKDRFTISRDDSKSTLYLQMNSLRAEDTAVYYCVRHGNFGNSYVSWFAYWGQGTLVTVSSASTKGPSVFPLAPSSKSTSGGTAALGCLVKDYFPEPVTVSWNSGALTSGVHTFPAVLQSSGLYSLSSVVTVPSSSLGTQTYICNVNHKPSNTKVDKKVEPKSCDKTHTCPPCPAPEAAGGPSVFLFPPKPKDTLMISRTPEVTCVVVDVSHEDPEVKFNWYVDGVEVHNAKTKPREEQYNSTYRVVSVLTVLHQDWLNGKEYKCKVSNKALGAPIEKTISKAKGQPREPQVYTLPPCREEMTKNQVSLWCLVKGFYPSDIAVEWESNGQPENNYKTTPPVLDSDGSFFLYSKLTVDKSRWQQGNVFSCSVMHEALHNHYTQKSLSLSPGK
chain: EVQLLESGGGLVQPGGSLRLSCAASGFTFSSYAMIWVRQAPGKGLEWVSGISESGGSTYYADSVKGRFTISRDNSKNTLYLQMNSLRAEDTAVYFCVKDLDDILTGYYKDYWGQGTLVTVSSRTGGGGSKLEVQLLESGGGLVQPGGSLRLSCAASGFTFSSYAMIWVRQAPGKGLEWVSGISESGGSTYYADSVKGRFTISRDNSKNTLYLQMNSLRAEDTAVYFCVKDLDDILTGYYKDYWGQGTLVTVSSASEPKSSDKTHTCPPCPAPEAAGGPSVFLFPPKPKDTLMISRTPEVTCVVVDVSHEDPEVKFNWYVDGVEVHNAKTKPREEQYNSTYRVVSVLTVLHQDWLNGKEYKCKVSNKALGAPIEKTISKAKGQPREPQVCTLPPSREEMTKNQVSLSCAVKGFYPSDIAVEWESNGQPENNYKTTPPVLDSDGSFFLVSKLTVDKSRWQQGNVFSCSVMHEALHNHYTQKSLSLSPGK
notes: BCMAxCD3, Fab-Fc-VH(2) (structure 14); CD3 Fab of PR001848, two BCMA VH of PR000940, linker RT-GS_5-KL; IgG1 knob/hole, AAG
B9: PR002300 (bispecific antibody, human IgG1, lambda, L234A L235A)
light: B4 light
heavy: B8 heavy
chain: EVQLLESGGGLVQPGGSLRLSCAASGFTFSSYAMIWVRQAPGKGLEWVSGISESGGSTYYADSVKGRFTISRDNSKNTLYLQMNSLRAEDTAVYFCVKDLDDILTGYYKDYWGQGTLVTVSSRTGGGGSGGGGSGGGGSKLEVQLLESGGGLVQPGGSLRLSCAASGFTFSSYAMIWVRQAPGKGLEWVSGISESGGSTYYADSVKGRFTISRDNSKNTLYLQMNSLRAEDTAVYFCVKDLDDILTGYYKDYWGQGTLVTVSSASEPKSSDKTHTCPPCPAPEAAGGPSVFLFPPKPKDTLMISRTPEVTCVVVDVSHEDPEVKFNWYVDGVEVHNAKTKPREEQYNSTYRVVSVLTVLHQDWLNGKEYKCKVSNKALGAPIEKTISKAKGQPREPQVCTLPPSREEMTKNQVSLSCAVKGFYPSDIAVEWESNGQPENNYKTTPPVLDSDGSFFLVSKLTVDKSRWQQGNVFSCSVMHEALHNHYTQKSLSLSPGK
notes: BCMAxCD3, Fab-Fc-VH(2) (structure 14); CD3 Fab of PR001848, two BCMA VH of PR000940, linker RT-GS_15-KL; IgG1 knob/hole, AAG
B10: PR002332 (bispecific antibody, human IgG1, lambda, L234A L235A)
light: B4 light
heavy: B8 heavy
chain: EVQLVETGGGLIQPGGSLRLSCAASGFTVSDNYMTWVRQAPGKGLEWVSVIFSGGNTYYADSVKGRFTISRDNAKNTLYLQMNSLRAEDTALYYCARRNYDDTRGTDVFDIWGQGTMVTVSSRTGGGGSGGGGSGGGGSKLEVQLVETGGGLIQPGGSLRLSCAASGFTVSSNYMTWVRQAPGKGLEWVSVIFSGGSTYYADSVKGRFTISRDNSKNTLYLQMNSLRAEDTAVYYCARRIAVAGHDVFDIWGQGTMVTVSSASEPKSSDKTHTCPPCPAPEAAGGPSVFLFPPKPKDTLMISRTPEVTCVVVDVSHEDPEVKFNWYVDGVEVHNAKTKPREEQYNSTYRVVSVLTVLHQDWLNGKEYKCKVSNKALGAPIEKTISKAKGQPREPQVCTLPPSREEMTKNQVSLSCAVKGFYPSDIAVEWESNGQPENNYKTTPPVLDSDGSFFLVSKLTVDKSRWQQGNVFSCSVMHEALHNHYTQKSLSLSPGK
notes: BCMAxCD3, Fab-Fc-VH'-VH'' (structure 15); IgG1 knob/hole, AAG
B11: PR000274 (antibody, human IgG1, kappa, V domains shown)
VH: QVQLVQSGAEVKKPGSSVKVSCKASGGTFSNYWMHWVRQAPGQGLEWMGATYRGHSDTYYNQKFKGRVTITADKSTSTAYMELSSLRSEDTAVYYCARGAIYDGYDVLDNWGQGTLVTVSS
VL: DIQMTQSPSSLSASVGDRVTITCSASQDISNYLNWYQQKPGKAPKLLIYYTSNLHSGVPSRFSGSGSGTDFTLTISSLQPEDFATYYCQQYRKLPWTFGQGTKLEIKR
notes: also called Positive control 1; CA8-J6M0
B12: PR001046 VH single-domain molecule (original molecule) (VHH)
VHH: EVQLVETGGGLIQPGGSLRLSCAASGFTVSDNYMTWVRQAPGKGLEWVSVIFSGGNTYYADSVKGRFTISRDNAKNTLYLQMNSLRAEDTALYYCARRNYDDTRGTDVFDIWGQGTMVTVSS
notes: not the HCAb form; not shown: Flag and His tags
B13: PR004559, PR001046 VH-derived single-domain variant 1046-R1-12G7 (VHH)
VHH: B12 VHH with N56K
notes: Tested as VH single domain with Flag and His tags; also called PR001046-R1-12G7; not shown: Flag and His tags
B14: PR004560, PR001046 VH-derived single-domain variant 1046-R2-10F1 (VHH)
VHH: B12 VHH with N32A, Y59V, A60S, D102Q
notes: Tested as VH single domain with Flag and His tags; not shown: Flag and His tags

Biological target: T4, human PD-L1 on cells (CHO-K1/hPDL1; MDA-MB-231) (human, UniProt Q9NZQ7 19-290)
T4 construct: whole, on cells
Assay: competition FACS: biotinylated PD-1 to CHO-K1/hPDL1 cells (Experiment 2)

T4 sequence (Q9NZQ7 19-290): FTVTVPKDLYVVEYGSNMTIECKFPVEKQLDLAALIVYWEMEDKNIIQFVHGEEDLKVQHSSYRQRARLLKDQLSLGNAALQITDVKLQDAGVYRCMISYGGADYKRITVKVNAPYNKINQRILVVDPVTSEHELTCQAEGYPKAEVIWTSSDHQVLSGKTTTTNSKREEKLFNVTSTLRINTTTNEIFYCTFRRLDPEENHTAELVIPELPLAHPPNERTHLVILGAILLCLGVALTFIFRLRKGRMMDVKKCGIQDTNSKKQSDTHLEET

Binder | IC50 | Maximum inhibition rate (%)
B1 | 0.5 nM | 82.3%
B2 | 1.69 nM | 81.4%
B3 | 0.27 nM | 79.8%

Biological target: T1, human BCMA
Assay: FACS on NCI-H929 cells

Binder | EC50 | Maximum MFI
B4 | 2.3 nM | 10900
B5 | 2.1 nM | 10800
B6 | 5.6 nM | 8660
B7 | 1.8 nM | 11100
B8 | – | 32800
B9 | – | 44200
B10 | 9 nM | 84500
B11 | 28.9 nM | –

Biological target: T5, human CTLA4 on cells (CHO-K1/hCTLA4; HEK293/hCTLA4; 293F-hCTLA4) (human, UniProt P16410 36-223)
T5 construct: whole, on cells
Assay: FACS, CHO-K1/hCTLA4 cells (Test 2)

T5 sequence (P16410 36-223): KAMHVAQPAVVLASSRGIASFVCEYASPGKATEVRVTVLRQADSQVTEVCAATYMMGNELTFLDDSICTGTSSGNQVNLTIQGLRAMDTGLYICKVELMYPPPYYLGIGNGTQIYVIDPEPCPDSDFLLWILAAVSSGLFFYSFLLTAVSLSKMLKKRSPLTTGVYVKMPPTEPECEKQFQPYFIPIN

Binder | EC50 | Maximum MFI
B1 | 9.9 nM | 781 MFI
B2 | 4.65 nM | 401 MFI

Biological target: T2, human BCMA
Assay: flow cytometry, NCI-H929 cells, Flag-tagged VH single domain, anti-tag secondary antibody

Binder | Maximum MFI | EC50
B12 | 764 | –
B13 | 1190 | 22.4 nM
B14 | 1300 | 3.75 nM

Biological target: T5, human CTLA4 on cells (CHO-K1/hCTLA4; …)
Assay: competition FACS: biotinylated B7-1-Fc to CHO-K1/hCTLA4 cells (Test 2)

Binder | IC50 | Maximum inhibition rate (%)
B1 | 6.22 nM | 99.2%
B2 | 2.97 nM | 100%

Biological target: T3, biotinylated human BCMA-Fc, Avitag …
Assay: BLI, dissociation rate relative to the original molecule PR001046 VH

Binder | Kdis fold
B12 | 1
B13 | 0.54
B14 | 0.43

Biological target: T3, biotinylated human BCMA-Fc, Avitag …
Assay: BLI (Octet Red96e), biotinylated BCMA-Fc on SA sensor, VH supernatant, 100 nM, single concentration

Binder | Response | koff
B12 | 0.261 | 0.000696 s⁻¹
B13 | 0.261 | 0.000379 s⁻¹
B14 | 0.573 | 0.000301 s⁻¹

Biological target: T4, human PD-L1 on cells (CHO-K1/hPDL1; …)
Assay: FACS, CHO-K1/hPDL1 cells (Experiment 2)

Binder | EC50 | Maximum MFI
B1 | 0.83 nM | 8310 MFI
B2 | 1.94 nM | 5660 MFI
B3 | 0.5 nM | 8380 MFI

Reference: patent US20230322953A1 (HARBOUR BIOMED SHANGHAI, published 2023)
